The text below walks through data of article PMC8222386.

Assay [1] concerns the target iLight (evolved photosensory core module of Idiomarina sp. bacterial phytochrome IsPadC) (Idiomarina sp. A28L). The experiment in a line: native gel or EMSA + SEC; Pfr state: purified protein illuminated with 660/15 nm light (2 mW/cm2, 0.5 h) in 20 mM HEPES pH 7.7, 300 mM NaCl; native PAGE 4-20% gradient gel, 20 ug per lane, run in darkness, ZnCl2 staining; SEC on HiLoad 16/600 Superdex 200 in darkness, protein at 1.9 mg/ml; step: dimers to tetramer. Background: A gel shift assay detects complexes by their altered migration in electrophoresis.

Assay [2] shares this target.
Assay [3] has the same target. The source holds these as a separate data set.
Assay [4] shares this target. The source holds these as a separate data set.
The target is the same in assay [5]. Kind of assay: native gel or EMSA + SEC; Pr state: purified protein illuminated with 780/30 nm light (2 mW/cm2, 0.5 h) in 20 mM HEPES pH 7.7, 300 mM NaCl; native PAGE 4-20% gradient gel, 20 ug per lane, run in darkness, ZnCl2 staining; SEC on HiLoad 16/600 Superdex 200 in darkness, protein at 1.9 mg/ml.
Assay [6] concerns the target wild-type IsPadC-PCM (photosensory core module of Idiomarina sp. A28L phytochrome-activated diguanylyl cyclase) (Idiomarina sp. A28L). Kind of assay: native gel or EMSA; native PAGE of Fig. 3f, 20 ug per lane, ZnCl2 staining for bound biliverdin; illumination state not told for this statement; step: monomers to dimer.

As to “iLight (evolved photosensory core module of Idiomarina sp. bacterial phytochrome IsPadC) (domain or fragment)”, the stoichiometry N (in general, the number of molecules, sites or subunits per partner or assembly) in assay [1] was determined as 4. In assay [2], the repression of the ColE-driven mCherry reporter in E. coli by LexA408-DBD-iLight-msfGFP, 660 nm light against darkness was 115 fold. The same substance showed an RLuc8 reporter signal in livers of mice co-transfected with NLS-Gal4-DBD-iLight-VP16 and pG12-RLuc8, 24 h of 660 nm light against darkness in assay [3] of 6 fold. Further, in assay [4], the SEAP reporter production in HeLa cells with NLS-Gal4-DBD-iLight-VP16 after 48 h of 660 nm light against darkness, exogenous biliverdin from none (~20.5-fold) to 10 uM was 65 to 70 fold and the time course of SEAP reporter production in HeLa cells with NLS-Gal4-DBD-iLight-VP16, 660 nm light against darkness, 24 h (~19-fold) to 72 h is 70 fold. The stoichiometry N in assay [5] was determined as 2.

In assay [6], “wild-type IsPadC-PCM (photosensory core module of Idiomarina sp. A28L phytochrome-activated diguanylyl cyclase) (domain or fragment)” yielded a stoichiometry N of 2.
